From IntAct's records for PubMed 36931259

B1: 14-3-3 protein sigma (Homo sapiens), P31947 (parent)
chain: MERASLIQKAKLAEQAERYEDMAAFMKGAVEKGEELSCEERNLLSVAYKNVVGGQRAAWRVLSSIEQKSNEEGSEEKGPEVREYREKVETELQGVCDTVLGLLDSHLIKEAGDAESRVFYLKMKGDYYRYLAEVATGDDKKRIIDSARSAYQEAMDISKKEMPPTNPIRLGLALNFSVFHYEIANSPEEAISLAKTTFDEAMADLHTLSEDSYKDSTLIMQLLRDNLTLWTADNAGEEGGEAPQEPQS
partner: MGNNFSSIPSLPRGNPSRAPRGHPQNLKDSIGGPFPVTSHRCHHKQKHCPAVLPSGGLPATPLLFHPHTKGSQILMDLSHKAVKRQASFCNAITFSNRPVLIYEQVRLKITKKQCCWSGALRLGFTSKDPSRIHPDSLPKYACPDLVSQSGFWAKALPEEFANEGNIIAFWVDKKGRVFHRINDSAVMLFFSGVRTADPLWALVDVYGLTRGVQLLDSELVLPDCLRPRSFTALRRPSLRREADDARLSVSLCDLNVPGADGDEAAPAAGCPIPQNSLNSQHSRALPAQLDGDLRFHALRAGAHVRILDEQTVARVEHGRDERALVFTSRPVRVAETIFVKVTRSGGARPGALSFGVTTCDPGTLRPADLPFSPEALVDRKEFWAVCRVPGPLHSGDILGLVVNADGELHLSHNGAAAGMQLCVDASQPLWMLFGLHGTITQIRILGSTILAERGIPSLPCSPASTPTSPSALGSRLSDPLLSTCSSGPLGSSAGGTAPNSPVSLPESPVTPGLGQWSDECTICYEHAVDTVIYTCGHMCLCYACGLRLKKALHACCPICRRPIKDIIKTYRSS
B2: 14-3-3 protein sigma (Homo sapiens), P31947 (parent)
chain: B1 chain
partner: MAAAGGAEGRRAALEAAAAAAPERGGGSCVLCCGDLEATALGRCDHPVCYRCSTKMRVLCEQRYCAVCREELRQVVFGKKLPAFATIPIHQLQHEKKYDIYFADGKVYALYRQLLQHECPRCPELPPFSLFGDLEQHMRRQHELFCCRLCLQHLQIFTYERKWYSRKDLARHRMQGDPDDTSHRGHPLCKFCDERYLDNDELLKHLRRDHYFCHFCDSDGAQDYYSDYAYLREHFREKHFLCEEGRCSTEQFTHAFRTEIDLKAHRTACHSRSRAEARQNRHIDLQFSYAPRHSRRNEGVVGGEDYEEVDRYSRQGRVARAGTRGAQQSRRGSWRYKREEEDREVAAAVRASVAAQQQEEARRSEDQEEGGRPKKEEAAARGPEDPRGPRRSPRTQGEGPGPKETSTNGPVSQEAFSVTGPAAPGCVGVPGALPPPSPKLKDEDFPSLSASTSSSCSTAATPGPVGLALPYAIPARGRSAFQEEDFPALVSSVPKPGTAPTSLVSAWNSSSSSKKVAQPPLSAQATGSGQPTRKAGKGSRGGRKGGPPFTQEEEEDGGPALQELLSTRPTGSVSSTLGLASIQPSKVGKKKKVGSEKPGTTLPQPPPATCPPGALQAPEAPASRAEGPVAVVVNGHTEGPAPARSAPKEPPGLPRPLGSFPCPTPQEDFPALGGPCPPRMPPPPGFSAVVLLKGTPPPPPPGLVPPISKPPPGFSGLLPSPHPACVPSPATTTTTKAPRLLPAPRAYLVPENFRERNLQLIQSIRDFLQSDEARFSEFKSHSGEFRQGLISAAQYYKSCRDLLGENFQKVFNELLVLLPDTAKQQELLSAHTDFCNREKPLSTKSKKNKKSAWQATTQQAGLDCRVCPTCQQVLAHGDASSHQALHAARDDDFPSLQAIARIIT
B3: 14-3-3 protein sigma (Homo sapiens), P31947 (parent)
chain: B1 chain
partner: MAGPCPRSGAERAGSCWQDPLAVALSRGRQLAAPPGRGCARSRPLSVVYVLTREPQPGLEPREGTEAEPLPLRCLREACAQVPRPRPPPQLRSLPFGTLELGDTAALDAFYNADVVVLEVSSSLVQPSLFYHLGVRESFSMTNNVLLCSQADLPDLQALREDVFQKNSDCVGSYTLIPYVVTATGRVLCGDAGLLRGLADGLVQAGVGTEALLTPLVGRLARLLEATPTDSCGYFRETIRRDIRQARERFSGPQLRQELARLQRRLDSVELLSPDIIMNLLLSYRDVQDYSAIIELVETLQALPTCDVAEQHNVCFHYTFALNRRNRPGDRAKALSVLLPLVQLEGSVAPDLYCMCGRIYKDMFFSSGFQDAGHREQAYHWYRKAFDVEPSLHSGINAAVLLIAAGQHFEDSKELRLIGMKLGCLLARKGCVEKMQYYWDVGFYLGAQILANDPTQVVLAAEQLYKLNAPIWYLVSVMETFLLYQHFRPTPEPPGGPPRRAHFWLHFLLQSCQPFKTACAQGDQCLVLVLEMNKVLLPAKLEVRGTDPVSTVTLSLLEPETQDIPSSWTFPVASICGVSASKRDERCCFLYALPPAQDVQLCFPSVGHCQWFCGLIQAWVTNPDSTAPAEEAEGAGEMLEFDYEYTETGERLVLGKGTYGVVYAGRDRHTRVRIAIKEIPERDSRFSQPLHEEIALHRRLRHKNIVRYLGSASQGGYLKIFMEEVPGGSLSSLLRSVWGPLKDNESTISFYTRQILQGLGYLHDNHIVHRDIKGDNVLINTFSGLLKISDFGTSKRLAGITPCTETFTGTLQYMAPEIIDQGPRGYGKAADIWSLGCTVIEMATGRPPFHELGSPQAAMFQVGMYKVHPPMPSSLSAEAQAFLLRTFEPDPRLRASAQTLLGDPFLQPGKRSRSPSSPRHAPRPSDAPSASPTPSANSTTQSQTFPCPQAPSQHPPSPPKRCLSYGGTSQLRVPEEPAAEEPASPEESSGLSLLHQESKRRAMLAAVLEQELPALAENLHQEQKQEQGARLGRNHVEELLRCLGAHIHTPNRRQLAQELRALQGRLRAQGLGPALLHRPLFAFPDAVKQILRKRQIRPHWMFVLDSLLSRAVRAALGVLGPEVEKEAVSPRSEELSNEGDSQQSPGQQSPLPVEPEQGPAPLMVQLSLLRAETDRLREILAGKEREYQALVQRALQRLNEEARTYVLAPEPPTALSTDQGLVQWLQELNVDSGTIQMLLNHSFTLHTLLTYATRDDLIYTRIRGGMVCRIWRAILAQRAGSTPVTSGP
B4: 14-3-3 protein sigma (Homo sapiens), P31947 (parent)
chain: B1 chain
partner: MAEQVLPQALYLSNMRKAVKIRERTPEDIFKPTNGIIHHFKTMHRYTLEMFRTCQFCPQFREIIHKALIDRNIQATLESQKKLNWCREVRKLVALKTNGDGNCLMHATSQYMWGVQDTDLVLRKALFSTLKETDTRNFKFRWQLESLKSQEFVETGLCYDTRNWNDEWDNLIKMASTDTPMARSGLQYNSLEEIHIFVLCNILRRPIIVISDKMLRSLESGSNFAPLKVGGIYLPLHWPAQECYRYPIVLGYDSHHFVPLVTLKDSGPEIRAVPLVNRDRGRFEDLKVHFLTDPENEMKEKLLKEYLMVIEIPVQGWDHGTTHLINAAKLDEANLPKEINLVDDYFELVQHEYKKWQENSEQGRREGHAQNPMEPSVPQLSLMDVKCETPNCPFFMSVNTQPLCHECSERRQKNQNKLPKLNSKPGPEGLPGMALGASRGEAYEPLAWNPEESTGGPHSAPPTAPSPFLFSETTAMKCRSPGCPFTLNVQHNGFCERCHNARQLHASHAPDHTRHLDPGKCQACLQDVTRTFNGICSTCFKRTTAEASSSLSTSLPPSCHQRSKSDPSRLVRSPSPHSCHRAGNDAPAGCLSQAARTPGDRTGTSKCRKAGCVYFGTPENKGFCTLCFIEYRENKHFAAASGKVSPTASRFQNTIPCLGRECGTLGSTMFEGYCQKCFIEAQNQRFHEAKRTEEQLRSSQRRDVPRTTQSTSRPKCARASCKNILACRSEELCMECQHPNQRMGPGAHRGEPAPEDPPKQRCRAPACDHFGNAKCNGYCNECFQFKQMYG

Variants of: B1
Settings: with neul1_human NEURL1, O76050

Row | effect of a mutation on the interaction | Variant
1 | decreasing interaction strength | K49E;R56E;V178D

Variants of: B2
Settings: with zn598_human ZNF598, Q86UK7

Row | effect of a mutation on the interaction | Variant
2 | decreasing interaction strength | K49E;R56E;V178D

Variants of: B3
Settings: with m3k6_human MAP3K6, O95382

Row | effect of a mutation on the interaction | Variant
3 | decreasing interaction strength | K49E;R56E;V178D

Variants of: B4
Settings: with tnap3_human TNFAIP3, P21580

Row | effect of a mutation on the interaction | Variant
4 | decreasing interaction strength | K49E;R56E;V178D
